Changes are numbered by the printed parent chain.

Sequences and labels used below:
B1: 367_E07 (antibody, V domains shown)
VH: EVQLLESGGGLVQPGGSLRLSCAASGFTFSDYSMNWVRQAPGKGLEWVSSINYNGGYKGYADSVKGRFTISRDNSKNTLYLQMNSLRAEDTAVYYCARGATWHDTHLDYWGQGTLVTVSS
VL: DIQMTQSPSSLSASVGDRVTITCRASQSILSYVNWYQQKPGKAPKLVIYAATSRASGVPSRFSGSGSGTDFTLTISSLQPEDFATYYCQQSYENPLTFGGGTKVEIK
B2: 368_H11 (antibody, V domains shown)
VH: B1 VH with S30D, D31S, S33G, N35H, S49A, K58T, G59S
VL: B1 VL with V33L, V47L, Y92D, E93D, N94T
B3: 370_D03 (antibody, V domains shown)
VH: B1 VH with D31S, S49A, K58T, G59S
VL: B1 VL with L30I, S31T, V33L, V47L, E93D, N94L
B4: 370_C07 (antibody, V domains shown)
VH: B1 VH with D31S, S49A, S50N, G59S
VL: B1 VL with V33L, V47L, A55H, N94S
B5: 368_C11 (antibody, V domains shown)
VH: B1 VH with G55S, G59S
VL: B1 VL with L30I, V33L, V47L, E93D
B6: 371_F09 (antibody, V domains shown)
VH: B1 VH with D31S, S49A, S50G, K58T, G59S
VL: B1 VL with S31T, V33L, V47L, E93D
B7: 369_A11 (antibody, V domains shown)
VH: B1 VH with S30D, D31S, S33G, S49A, S50N
VL: B1 VL with L30I, S31T, V33L, A55H, N94S
B8: 369_F05 (antibody, V domains shown)
VH: B1 VH with D31S, S50G, G59S
VL: B1 VL with L30S, V33L, V47L, T52S, R54L, A55Q, S91G, E93D, N94S
B9: 368_G03 (antibody, V domains shown)
VH: B1 VH with D31S, S50G, G55S, K58T, G59S, H106A
VL: B1 VL with V33L, E93D, N94T
B10: 370_E05 (antibody, V domains shown)
VH: B1 VH with D31S, S33G, S50N
VL: B1 VL with L30S, S31T, V33L, A51V, E93N, N94S
B11: 371_G01 (antibody, V domains shown)
VH: B1 VH with S50N, K58T, G59S
VL: B1 VL with S31T, V33L, V47L, R54L, E93D, N94L
B12: 369_D08 (antibody, V domains shown)
VH: B1 VH with S49A
VL: B1 VL with S31T, V33L, V47L, E93D, N94T
B13: 368_F06 (antibody, V domains shown)
VH: B1 VH with S30D, N35H, S49A, S50N, G55S, K58T
VL: B1 VL with V33L, A51T
B14: 368_G10 (antibody, V domains shown)
VH: B1 VH with D31S, N35H, K58T, G59S
VL: B1 VL with L30V, E93D, N94T
B15: 369_F09 (antibody, V domains shown)
VH: B1 VH with D31S, S33G, N35H, S49A, S50G, K58T, G59S
VL: B1 VL with S31T, V47L, E93D, N94S
B16: 370_H04 (antibody, V domains shown)
VH: B1 VH with D31S, S50N, K58T
VL: B1 VL with V47L, E93D, N94L
B17: 369_H02 (antibody, V domains shown)
VH: B1 VH with S30D, S50N, G59S
VL: B1 VL with L30I, V33L, V47L, E93D, N94S
B18: 370_F01 (antibody, V domains shown)
VH: B1 VH with D31S, S33G, S50N, K58T, G59S
VL: B1 VL with L30V, V33L, V47L, E93D, N94S
B19: 370_D09 (antibody, V domains shown)
VH: B1 VH with S50G, G55S, K58T, G59S
VL: B1 VL with L30V, S31T, V33L, E93D, N94T
B20: 370_H06 (antibody, V domains shown)
VH: B1 VH with S30D, S49A, S50N, K58T
VL: B1 VL with S31T, V33L, V47L, N94T
B21: 368_H06 (antibody, V domains shown)
VH: B1 VH with S30D, D31S, S33G, N35H, S49A, S50N, G59S
VL: B1 VL with S31T, V47L, A51T, E93D
B22: 370_E04 (antibody, V domains shown)
VH: B1 VH with D31S, S49A, S50N
VL: B1 VL with S31T, V33L, V47L, A51V, R54L, A55H, N94T
B23: 372_E08 (antibody, V domains shown)
VH: B1 VH with S50N, K58T, G59S
VL: B1 VL with L30I, S31T, V33L, V47L, E93N, N94L
B24: 371_E12 (antibody, V domains shown)
VH: B1 VH with S30D, D31S, S50G, G55S, G59S
VL: B1 VL with V33L, V47L, R54L, E93D, N94T
B25: 371_B01 (antibody, V domains shown)
VH: B1 VH with S30D, D31S, S50N, G55S, K58T
VL: B1 VL with V47L, R54L, E93D, N94L
B26: 370_B08 (antibody, V domains shown)
VH: B1 VH with S49A, S50N, K58T
VL: B1 VL with V33L, V47L, T52S, R54L, A55Q, E93D, N94S
B27: 370_F12 (antibody, V domains shown)
VH: B1 VH with S49A, S50N, K58T
VL: B1 VL with V33L, V47L, T52S, R54L, A55Q, E93D, N94S
B28: 371_E09 (antibody, V domains shown)
VH: B1 VH with S50G, G55S, K58T, G59S
VL: B1 VL with S31T, V33L, V47L, E93N, N94S
B29: 372_B09 (antibody, V domains shown)
VH: B1 VH with D31S, G55S, K58T, G59S
VL: B1 VL with S31T, V33L, V47L, N94T
B30: 371_C06 (antibody, V domains shown)
VH: B1 VH with D31S, K58T, G59S
VL: B1 VL with L30S, V33L, V47L, A51V, E93D, N94L
B31: 369_G05 (antibody, V domains shown)
VH: B1 VH with D31S, S49A, S50G, K58T, G59S
VL: B1 VL with L30V, V33L, V47L, A55H, E93D, N94S
B32: 367_F09 (antibody, V domains shown)
VH: B1 VH with S30D, D31S, N35H, S49A, S50G, K58T, G59S
VL: B1 VL with S31T, V33L, V47L, R54L, Y92D, E93S
B33: 368_D02 (antibody, V domains shown)
VH: B1 VH with S30D, S33G, S50N, K58T
VL: B1 VL with L30S, S31T, V33L, A55H, E93D, N94T
B34: 369_E08 (antibody, V domains shown)
VH: B1 VH with D31S, S49A, G55S, K58T
VL: B1 VL with S31T, V47L, E93D, N94S
B35: 371_F03 (antibody, V domains shown)
VH: B1 VH with D31S, S50G, K58T, G59S
VL: B1 VL with L30I, S31T, V33L, V47L, R54L, A55H, E93D
B36: 371_E08 (antibody, V domains shown)
VH: B1 VH with D31S, S50N, G55S, G59S
VL: B1 VL with L30V, A55H, E93D, N94L
B37: 369_C12 (antibody, V domains shown)
VH: B1 VH with D31S, S33G, S49A, S50N
VL: B1 VL with S31T, V33L, V47L, A55H, E93D, N94T
B38: 370_F02 (antibody, V domains shown)
VH: B1 VH with S30D, D31S, S33G, S49A, S50N, K58T
VL: B1 VL with V33L, V47L, A51V, A55H, E93D, N94S
B39: 369_H08 (antibody, V domains shown)
VH: B1 VH with D31S, S49A, S50G, G55S, G59S
VL: B1 VL with R54L, N94S
B40: 371_C07 (antibody, V domains shown)
VH: B1 VH with S30D, D31S, S33G, S50N, K58T, H106A
VL: B1 VL with V33L, V47L, R54L, E93D, N94T
B41: 368_D12 (antibody, V domains shown)
VH: B1 VH with D31S, S33G, K58T, G59S
VL: B1 VL with E93N
B42: 371_H11 (antibody, V domains shown)
VH: B1 VH with D31S, S50G
VL: B1 VL with S31T, V33L, V47L, A51T, A55H, N94S
B43: 370_G08 (antibody, V domains shown)
VH: B1 VH with S49A, S50G, K58T
VL: B1 VL with S31T, V33L, N94S
B44: 369_H12 (antibody, V domains shown)
VH: B1 VH with D31S, S49A, S50G, G59S
VL: B1 VL with L30V, S31T, E93D, N94S
B45: 369_E05 (antibody, V domains shown)
VH: B1 VH with S33G, S49A, S50N, G59S
VL: B1 VL with S31T, V33L, V47L, R54L, N94T

For the experiment, the target named is Human Fc (human). In words: ELISA; negative control. For orientation: An ELISA detects its analyte on a solid surface through an enzyme-linked reagent.
With B1, the optical density turned out to be 0.221 OD. The value for B2 was 0.355 OD; that for B3 was 0.57 OD. The value for B4 was 0.316 OD; that for B5 was 0.275 OD; that for B6 was 0.602 OD. The value for B7 was 0.366 OD; that for B8 was 0.331 OD. For B9, the optical density worked out at 0.312 OD.

In turn, B10 returned an optical density of 0.427 OD. The value for B11 was 0.375 OD; that for B12 was 0.241 OD; that for B13 was 0.249 OD. The value for B14 was 0.356 OD; that for B15 was 0.5 OD; that for B16 was 0.596 OD.

Consider B17, for which the optical density was 0.408 OD.

In turn, B18 gave an optical density of 0.407 OD. As for B19, the figure is 0.287 OD; as for B20, 0.358 OD; as for B21, 0.311 OD. In the case of B22, the optical density amounted to 0.292 OD. B23 had an optical density of 0.369 OD. B24: the optical density came to 0.398 OD. As for B25, the figure is 0.464 OD; as for B26, 0.302 OD. The value for B27 was 0.457 OD. As to B28, the optical density turned out to be 0.306 OD. As for B29, the figure is 0.308 OD; as for B30, 0.308 OD. In the case of B31, the optical density was found to be 0.384 OD.

On to B32, for which the optical density turned out to be 0.289 OD. As for B33, the figure is 0.321 OD; as for B34, 0.272 OD; as for B35, 0.252 OD. In turn, B36 registered an optical density of 0.251 OD. The value for B37 was 0.418 OD. As to B38, the optical density came to 0.376 OD. As for B39, the optical density stood at 0.389 OD. Molecule B40 yielded an optical density of 0.287 OD. As for B41, the figure is 0.329 OD. As for B42, the figure is 0.363 OD; as for B43, 0.364 OD. As for B44, the figure is 0.414 OD; as for B45, 0.282 OD.

The values are drawn from US20210380703A1.
